“Also recorded” adds a separate entry of the source.
Key:
[1] = tested on: embryonic day 13.5 fetal liver cells; assay: Epo-dependent erythroid colony formation (CFU-e/BFU-e) in MethoCult, fetal liver; type: cell-based, mouse
Source text: Here, IL-17ra is expressed in the EEP region of the bBM SPRING plot (FIG. 4, Panel a) and its corresponding P2 subset (FIG. 4, Panel n), and to a lesser extent in the CEP/P1 region, in addition to its expression by non-erythroid cells. Both Ryk and mst1r are expressed more selectively, principally within the CEP/P1 region of the erythroid trajectory (FIG. 4, Panels a and n). Wnt5a, MSP and IL-17a were used to stimulate Ryk, mst1r and IL-17ra respectively, and measured their interaction with Epo, an essential erythroid cytokine, using colony formation assays (FIG. 4, Panel c). Epo concentration in blood ranges from 5-10 mU/ml in the basal state, to 10,000 mU/ml in extremely severe anemia The addition of MSP to FL in the presence of mildly elevated Epo concentrations (50 mU/ml, characteristic of mild anemia) was equivalent to a 10-fold increase in Epo concentration, generating over 2 fold the number of CFUe (day 3 unifocal) colonies. However, in the context of high Epo (>100 mU/ml), the addition of MSP was inhibitory. MSP-mediated inhibition was also seen in earlier FL progenitors and in BM progenitors of all stages. […] In summary, MSP, Wnt5a and IL-17a may provide powerful modulation of pre-ETD erythroid progenitors, in a manner that is highly dependent on their developmental stage and background state of progenitor stimulation (stress v. basal).
In bone marrow (BM), 1117ra was expressed by EEPs/P2 and to a lesser extent by CEPs/P1, in addition to non-erythroid cells. Both Ryk and Mst1r are expressed more selectively, though not exclusively, by EEP and CEP cells (FIG. 15, Panel a, and FIG. 16, Panels a and b). Ryk, Mst1r and IL-17Ra were stimulated with their respective ligands, Wnt5a, MSP and IL-17a, using Epo-dependent erythroid colony formation as readout (FIG. 15, Panels b and c, FIG. 7). Epo concentration in blood varies from ˜10 mU/ml in health, to 10,000 mU/ml in severe anemia. […] By contrast. IL-17a mediated a potentiation of adult BM CFU-e colony formation throughout the Epo dose-response curve, giving rise to 4-fold more colonies at lower Epo (50 mU/ml), and to a ˜50% increase in colony formation when added to maximal levels of Epo (FIG. 15, Panels b. and c).
Growth factor perturbations of erythroid colony formation: CFU-e and BFU-e colony formation assays in MethoCult (M3234 STEMCELL Technologies) were carried out on either freshly isolated bone marrow or on embryonic day 13.5 fetal liver cells from Balb/cJ mice. The following growth factors were tested: MSP/MST1 (R&D systems; CAT #6244-MS-025), Recombinant Human/Mouse Wnt-5a (R&D systems; CAT #645-WN-010) and Recombinant Murine IL17 (IL-17A) (PeproTech; CAT 4210-17). In each experiment, a range of Epo concentrations was tested, with or without added additional growth factors (MSP, Wnt5a or IL-17A) as indicated in FIG. 5 and in Extended Data FIG. 12. In addition to Epo, IL-3 (long/mL) and SCF (50ng/ mL) were added to the MethoCult in the case of BFU-e assays. Each condition was tested in quadruplicates, in at least 2 separate experiments. Colonies were scored on day 3 (for CFU-e), day 4 (for late BFU-e) and on day 7 (for early BFU-e) following staining with diaminobenzidine, to highlight hemoglobin expression.

[2] = tested on: freshly isolated bone marrow; assay: Epo-dependent erythroid colony formation (CFU-e/BFU-e) in MethoCult, bone marrow; type: cell-based, mouse; settings: BM progenitors of all stages
Source text: Here, IL-17ra is expressed in the EEP region of the bBM SPRING plot (FIG. 4, Panel a) and its corresponding P2 subset (FIG. 4, Panel n), and to a lesser extent in the CEP/P1 region, in addition to its expression by non-erythroid cells. Both Ryk and mst1r are expressed more selectively, principally within the CEP/P1 region of the erythroid trajectory (FIG. 4, Panels a and n). Wnt5a, MSP and IL-17a were used to stimulate Ryk, mst1r and IL-17ra respectively, and measured their interaction with Epo, an essential erythroid cytokine, using colony formation assays (FIG. 4, Panel c). […]
In bone marrow (BM), 1117ra was expressed by EEPs/P2 and to a lesser extent by CEPs/P1, in addition to non-erythroid cells. […] Ryk, Mst1r and IL-17Ra were stimulated with their respective ligands, Wnt5a, MSP and IL-17a, using Epo-dependent erythroid colony formation as readout (FIG. 15, Panels b and c, FIG. 7). […]
Growth factor perturbations of erythroid colony formation: CFU-e and BFU-e colony formation assays in MethoCult (M3234 STEMCELL Technologies) were carried out on either freshly isolated bone marrow or on embryonic day 13.5 fetal liver cells from Balb/cJ mice. […] Colonies were scored on day 3 (for CFU-e), day 4 (for late BFU-e) and on day 7 (for early BFU-e) following staining with diaminobenzidine, to highlight hemoglobin expression.

B1: Wnt5a: Recombinant Human/Mouse Wnt-5a, ligand of Ryk; R&D systems CAT #645-WN-010 (protein)
chain: MAGSAMSSKFFLVALAIFFSFAQVVIEANSWWSLGMNNPVQMSEVYIIGAQPLCSQLAGLSQGQKKLCHLYQDHMQYIGEGAKTGIKECQYQFRHRRWNCSTVDNTSVFGRVMQIGSRETAFTYAVSAAGVVNAMSRACREGELSTCGCSRAARPKDLPRDWLWGGCGDNIDYGYRFAKEFVDARERERIHAKGSYESARILMNLHNNEAGRRTVYNLADVACKCHGVSGSCSLKTCWLQLADFRKVGDALKEKYDSAAAMRLNSRGKLVQVNSRFNSPTTQDLVYIDPSPDYCVRNESTGSLGTQGRLCNKTSEGMDGCELMCCGRGYDQFKTVQTERCHCKFHWCCYVKCKKCTEIVDQFVCK
[1]; FL progenitors
  effect on erythroid colony formation in FL: consistent and potent inhibitor
[2]
  effect on erythroid colony formation in BM: consistent and potent inhibitor

B2: MSP: Macrophage Stimulating Protein, ligand of Mst1r; R&D systems CAT #6244-MS-025 (protein)
chain: MGLWWVTVQPPARRMGWLPLLLLLTQCLGVPGQRSPLNDFQVLRGTELQHLLHAVVPGPWQEDVADAEECAGRCGPLMDCRAFHYNVSSHGCQLLPWTQHSPHTRLRRSGRCDLFQKKDYVRTCIMNNGVGYRGTMATTVGGLPCQAWSHKFPNDHKYTPTLRNGLEENFCRNPDGDPGGPWCYTTDPAVRFQSCGIKSCREAACVWCNGEEYRGAVDRTESGRECQRWDLQHPHQHPFEPGKFLDQGLDDNYCRNPDGSERPWCYTTDPQIEREFCDLPRCGSEAQPRQEATTVSCFRGKGEGYRGTANTTTAGVPCQRWDAQIPHQHRFTPEKYACKDLRENFCRNPDGSEAPWCFTLRPGMRAAFCYQIRRCTDDVRPQDCYHGAGEQYRGTVSKTRKGVQCQRWSAETPHKPQFTFTSEPHAQLEENFCRNPDGDSHGPWCYTMDPRTPFDYCALRRCADDQPPSILDPPDQVQFEKCGKRVDRLDQRRSKLRVVGGHPGNSPWTVSLRNRQGQHFCGGSLVKEQWILTARQCFSSCHMPLTGYEVWLGTLFQNPQHGEPSLQRVPVAKMVCGPSGSQLVLLKLERSVTLNQRVALICLPPEWYVVPPGTKCEIAGWGETKGTGNDTVLNVALLNVISNQECNIKHRGRVRESEMCTEGLLAPVGACEGDYGGPLACFTHNCWVLEGIIIPNRVCARSRWPAVFTRVSVFVDWIHKVMRLG
[1]; FL, Epo 50 mU/ml or less
  effect on fetal liver erythropoiesis at low erythropoietin: enhance erythropoiesis
[1]; FL, Epo 50 mU/ml, ligand added
  equivalent increase in Epo concentration: 10 fold
  number of CFUe (day 3 unifocal) colonies generated, fold: over 2 fold
[1]; FL, Epo >100 mU/ml
  effect on fetal liver erythropoiesis at high Epo: inhibitory; also recorded: inhibit erythropoiesis
[1]; FL, earlier progenitors (BFU-e)
  effect in earlier FL progenitors: inhibition
[1]; contexts other than FL at Epo 50 mU/ml (FL and BM)
  effect on erythroid colony formation in other contexts: inhibitory
[2]
  effect on erythroid colony formation in BM: inhibition; also recorded: inhibitory effect
